Results reported in US20090280480A1.

Columns and labels:
[1] = biological target: NM, the N-terminal and middle region of Saccharomyces cerevisiae Sup35 (soluble, unpolymerized) (Saccharomyces cerevisiae) (UniProt P05453); test: cell-based or functional assay
[2] = biological target: biotinylated NM^K184C seed (fibers) (Saccharomyces cerevisiae) (UniProt P05453); test: capture of biotinylated seed (50% w/w) on Streptavidin-coated Dynabeads, SDS wash, scintillation counting
[3] = biological target: Rnq1 preformed fibers (sonicated seed) (Saccharomyces cerevisiae) (UniProt P25367); test: cell-based or functional assay

biotinylated NM^K184C seed (fibers) (Saccharomyces cerevisiae), sequence (P05453 1-253 K184C): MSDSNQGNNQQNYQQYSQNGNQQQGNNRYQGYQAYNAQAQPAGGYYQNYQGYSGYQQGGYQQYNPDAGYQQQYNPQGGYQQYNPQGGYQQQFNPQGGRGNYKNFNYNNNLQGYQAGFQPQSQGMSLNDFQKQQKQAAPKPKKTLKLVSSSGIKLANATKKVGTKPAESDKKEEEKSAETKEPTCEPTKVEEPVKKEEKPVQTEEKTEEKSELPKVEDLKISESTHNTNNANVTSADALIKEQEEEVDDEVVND

Q: “Hsp104 (yeast protein-remodeling factor, AAA+ family), His-tag removed (from UniProt P31539 1-908) (enzyme)” was tested. Which inhibition of NM fibrillization, no nucleotide [1] did it give?
A: The inhibition of NM fibrillization, no nucleotide was 7.6 µM.

Q: And the inhibition of NM fibrillization, with ADP [1]?
A: The inhibition of NM fibrillization, with ADP was 3.1 µM.

Q: What about the inhibition of NM fibrillization, with AMP-PNP [1] of the same substance?
A: Its inhibition of NM fibrillization, with AMP-PNP is 0.2 µM.

Q: What about the inhibition of NM fibrillization, with ATP hydrolysis [1] of the same substance?
A: Its inhibition of NM fibrillization, with ATP hydrolysis is 0.1 µM.

Q: With “soluble NM^T158C-iodo[1-14C]acetamide (from UniProt P05453 1-253)” as the substance, how does the fraction of seed-bound NM soluble in SDS at early time points [2] read?
A: Its fraction of seed-bound NM soluble in SDS at early time points is 50%.

Q: With “Rnq1 (purified recombinant, soluble) (from UniProt P25367 1-405)” as the substance, how does the lag time of Thioflavin T fluorescence with 2% preformed fibers [3] read?
A: Its lag time of Thioflavin T fluorescence with 2% preformed fibers is 4.3 h.
